Literature values as cited in patent US5576301A, “Low molecular growth potentiating peptides” (The Penn State Research Foundation, priority 1994, dated 1996).

Legend:
[1] = system: patients; conditions: patients treated with recombinant hGH
[2] = system: tibial growth plate of hypophysectomized rats; conditions: hormone standard
[3] = comparison values

## recombinant form of hGH: recombinant human growth hormone used in the United States to treat patients
[1]
  patients treated that develop circulating antibodies: 20~30%

## Kabi hGH standard: human growth hormone standard obtained from Kabi Vitrum, Sweden
[2]
  potency of GH standard preparation: 3.0 IU/mg protein

## human monomeric growth hormone: monomeric 22K human growth hormone
[3]
  pI: 5.1-5.6

B1: USDA bovine GH preparation: bovine growth hormone standard used in the tibial line bioassay (protein, UniProt P01246 27-217, looked up)
Somatotropin: AFPAMSLSGLFANAVLRAQHLHQLAADTFKEFERTYIPEGQRYSIQNTQVAFCFSETIPAPTGKNEAQQKSDLELLRISLLLIQSWLGPLQFLSRVFTNSLVFGTSDRVYEKLKDLEEGILALMRELEDGTPRAGQILKQTYDKFDTNMRSDDALLKNYGLLSCFRKDLHKTETYLRVMKCRRFGEASCAF
[2]
  potency of GH standard preparation: 1.4 IU/mg protein
